The target in this test is PROTEIN KINASE SU… PROTEIN (AIK1), Prot-A fusion (Arabidopsis thaliana). As to the kind of experiment: co-IP; LUMIER in HEK293TN cells: Prot-A fusion co-transfected with Renilla luciferase fusion (AN always the luciferase fusion with the interactors); luciferase activity before (input) and after pulldown; percentage pulldown = pulldown/input x 100; empty vectors as negative control; positive if more than two times the background.
Chain of PROTEIN KINASE SU… PROTEIN (AIK1), Prot-A fusion (Arabidopsis thaliana) (main, as listed by the source): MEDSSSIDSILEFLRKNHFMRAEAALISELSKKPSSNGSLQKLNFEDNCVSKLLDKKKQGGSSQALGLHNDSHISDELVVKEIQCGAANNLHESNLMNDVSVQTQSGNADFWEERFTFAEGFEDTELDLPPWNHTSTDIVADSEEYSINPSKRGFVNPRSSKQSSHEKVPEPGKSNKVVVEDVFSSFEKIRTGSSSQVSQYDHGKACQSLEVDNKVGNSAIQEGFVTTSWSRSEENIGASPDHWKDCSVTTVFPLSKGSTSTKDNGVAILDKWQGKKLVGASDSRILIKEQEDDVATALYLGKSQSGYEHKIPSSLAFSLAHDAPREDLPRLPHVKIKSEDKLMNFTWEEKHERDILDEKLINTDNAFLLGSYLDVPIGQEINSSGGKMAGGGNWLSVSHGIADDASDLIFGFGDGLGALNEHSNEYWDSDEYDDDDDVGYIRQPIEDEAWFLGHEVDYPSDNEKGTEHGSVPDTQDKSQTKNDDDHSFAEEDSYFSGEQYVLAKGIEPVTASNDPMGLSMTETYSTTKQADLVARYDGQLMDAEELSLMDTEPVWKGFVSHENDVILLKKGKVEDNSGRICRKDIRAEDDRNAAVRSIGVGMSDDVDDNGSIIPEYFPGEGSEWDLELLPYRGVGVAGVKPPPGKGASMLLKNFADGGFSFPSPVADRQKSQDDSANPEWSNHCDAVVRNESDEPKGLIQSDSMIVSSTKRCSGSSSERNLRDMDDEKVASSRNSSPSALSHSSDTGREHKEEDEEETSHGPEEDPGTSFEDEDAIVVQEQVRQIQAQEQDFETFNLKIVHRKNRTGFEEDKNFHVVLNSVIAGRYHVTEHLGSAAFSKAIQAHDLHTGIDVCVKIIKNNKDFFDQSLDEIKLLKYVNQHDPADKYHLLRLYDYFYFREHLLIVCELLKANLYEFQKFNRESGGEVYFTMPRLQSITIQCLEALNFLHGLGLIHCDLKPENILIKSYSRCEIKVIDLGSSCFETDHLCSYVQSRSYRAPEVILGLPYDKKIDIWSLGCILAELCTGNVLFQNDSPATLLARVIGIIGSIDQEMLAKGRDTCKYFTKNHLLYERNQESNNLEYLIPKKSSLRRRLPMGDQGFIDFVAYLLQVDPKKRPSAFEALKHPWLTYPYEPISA

B1: AN^DOQ, Renilla luciferase fusion (LUMIER) (natural protein)
chain: MSKIRSSATMPHRDQPSPASPHVVTLNCIEDCALEQDSLAGVAGVEYVPLSRIADGKIESATAVLLHSLAYLPRAAQRRLRPHQLILCLGSADRAVDSTLAADLGLRLVHVDTSRAEEIADTVMALILGLLRRTHLLSRHALSASGWLGSLQPLCRGMRRCRGMVLGIVDRSVSARYLASRSLAFKMSVLYFDVPEGDEERIRPSRFPRAARRMDTLNDLLAASDVISLHCALTNDTVQILNAECLQHIKPGAFLVNTGSCQLLDDCAVKQLLIDGTIAGCALDGAEGPQWMEAWVKEMPNVLILPRSADYSEEVWMEIREKAISILHSFFLDGVIPSNTVSDEEVEESEASEEEEQSPSKHEKLAIVESTSRQQGESTLTSTEIVRREASELKESLSPGQQHVSQNTAVKPEGRRSRSGKKAKKRHSQQKYMQKTDGSSGLNEESTSRRDDIAMSDTEEVLSSSSRCASPEDSRSRKTPLEVMQESSPNQLVMSSKKFIGKSSELLKDGYVVALYAKDLSGLHVSRQRTKNGGWFLDTLSNVSKRDPAAQFIIAYRNKDTVGLRSFAAGGKLLQINRRMEFVFASHSFDVWESWSLEGSLDECRLVNCRNSSAVLDVRVEILAMVGDDGITRWID
B1 displayed an interaction as percent of wild-type AN (% of wild-type AN) of 1.6.

(Values after article PMC5469197, “ANGUSTIFOLIA, a Plant Homolog of CtBP/BARS Localizes to Stress Granules and Regulates Their Formation” (Frontiers in Plant Science, 2017).)
